# Laboratory results as given in doi:10.1101/2020.04.23.057265 (bioRxiv, 2020).
# B1: SARS-CoV nsp12 polymerase subunit (enzyme)
# chain: SADASTFLNRVCGVSAARLTPCGTGTSTDVVYRAFDIYNEKVAGFAKFLKTNCCRFQEKDEEGNLLDSYFVVKRHTMSNYQHEETIYNLVKDCPAVAVHDFFKFRVDGDMVPHISRQRLTKYTMADLVYALRHFDEGNCDTLKEILVTYNCCDDDYFNKKDWYDFVENPDILRVYANLGERVRQSLLKTVQFCDAMRDAGIVGVLTLDNQDLNGNWYDFGDFVQVAPGCGVPIVDSYYSLLMPILTLTRALAAESHMDADLAKPLIKWDLLKYDFTEERLCLFDRYFKYWDQTYHPNCINCLDDRCILHCANFNVLFSTVFPPTSFGPLVRKIFVDGVPFVVSTGYHFRELGVVHNQDVNLHSSRLSFKELLVYAADPAMHAASGNLLLDKRTTCFSVAALTNNVAFQTVKPGNFNKDFYDFAVSKGFFKEGSSVELKHFFFAQDGNAAISDYDYYRYNLPTMCDIRQLLFVVEVVDKYFDCYDGGCINANQVIVNNLDKSAGFPFNKWGKARLYYDSMSYEDQDALFAYTKRNVIPTITQMNLKYAISAKNRARTVAGVSICSTMTNRQFHQKLLKSIAATRGATVVIGTSKFYGGWHNMLKTVYSDVETPHLMGWDYPKCDRAMPNMLRIMASLVLARKHNTCCNLSHRFYRLANECAQVLSEMVMCGGSLYVKPGGTSSGDATTAYANSVFNICQAVTANVNALLSTDGNKIADKYVRNLQHRLYECLYRNRDVDHEFVDEFYAYLRKHFSMMILSDDAVVCYNSNYAAQGLVASIKNFKAVLYYQNNVFMSEAKCWTETDLTKGPHEFCSQHTMLVKQGDDYVYLPYPDPSRILGAGCFVDDIVKTDGTLMIERFVSLAIDAYPLTKHPNQEYADVFHLYLQYIRKLHDELTGHMLDMYSVMLTNDNTSRYWEPEFYEAMYTPHTVLQ
# Target: SARS-CoV nsp7L8 fusion protein (SARS-CoV, UniProt P0C6X7)
# Assay: SPR
binder,measurement,value
B1,binding result,binds
